Assay [1] has as its target phosphatidylinositol 3,4,5-trisphosphate Rac exchange factor 2 (PREX2) (UniProt Q70Z35 1-1606, limits assumed). Nature of the assay: cell-based or functional assay.
In assay [2] the target is endogenous PREX2 of mouse liver (mouse, UniProt Q3LAC4 1-1598, limits assumed). Nature of the assay: reciprocal co-IP, mouse liver lysates (FIG. 1B). The text has this: FIG. 1B depicts that mouse liver lysates were used for reciprocal co-IP assay followed by IB analysis.
Please refer to FIG. 1A to FIG. 1G, which illustrates that GNMT interacts with PREX2 and negatively regulates PREX2-mediated AKT signaling. As the data in FIG. 1A illustrated, GNMT interacted with endogenous PREX2. […] To map the binding domain, different Myc-tagged PREX2 truncated mutants were co-expressed with Flag-tagged GNMT in HEK293T cells.

Sequence of endogenous PREX2 of mouse liver (Q3LAC4 whole entry, the tested form may be a part): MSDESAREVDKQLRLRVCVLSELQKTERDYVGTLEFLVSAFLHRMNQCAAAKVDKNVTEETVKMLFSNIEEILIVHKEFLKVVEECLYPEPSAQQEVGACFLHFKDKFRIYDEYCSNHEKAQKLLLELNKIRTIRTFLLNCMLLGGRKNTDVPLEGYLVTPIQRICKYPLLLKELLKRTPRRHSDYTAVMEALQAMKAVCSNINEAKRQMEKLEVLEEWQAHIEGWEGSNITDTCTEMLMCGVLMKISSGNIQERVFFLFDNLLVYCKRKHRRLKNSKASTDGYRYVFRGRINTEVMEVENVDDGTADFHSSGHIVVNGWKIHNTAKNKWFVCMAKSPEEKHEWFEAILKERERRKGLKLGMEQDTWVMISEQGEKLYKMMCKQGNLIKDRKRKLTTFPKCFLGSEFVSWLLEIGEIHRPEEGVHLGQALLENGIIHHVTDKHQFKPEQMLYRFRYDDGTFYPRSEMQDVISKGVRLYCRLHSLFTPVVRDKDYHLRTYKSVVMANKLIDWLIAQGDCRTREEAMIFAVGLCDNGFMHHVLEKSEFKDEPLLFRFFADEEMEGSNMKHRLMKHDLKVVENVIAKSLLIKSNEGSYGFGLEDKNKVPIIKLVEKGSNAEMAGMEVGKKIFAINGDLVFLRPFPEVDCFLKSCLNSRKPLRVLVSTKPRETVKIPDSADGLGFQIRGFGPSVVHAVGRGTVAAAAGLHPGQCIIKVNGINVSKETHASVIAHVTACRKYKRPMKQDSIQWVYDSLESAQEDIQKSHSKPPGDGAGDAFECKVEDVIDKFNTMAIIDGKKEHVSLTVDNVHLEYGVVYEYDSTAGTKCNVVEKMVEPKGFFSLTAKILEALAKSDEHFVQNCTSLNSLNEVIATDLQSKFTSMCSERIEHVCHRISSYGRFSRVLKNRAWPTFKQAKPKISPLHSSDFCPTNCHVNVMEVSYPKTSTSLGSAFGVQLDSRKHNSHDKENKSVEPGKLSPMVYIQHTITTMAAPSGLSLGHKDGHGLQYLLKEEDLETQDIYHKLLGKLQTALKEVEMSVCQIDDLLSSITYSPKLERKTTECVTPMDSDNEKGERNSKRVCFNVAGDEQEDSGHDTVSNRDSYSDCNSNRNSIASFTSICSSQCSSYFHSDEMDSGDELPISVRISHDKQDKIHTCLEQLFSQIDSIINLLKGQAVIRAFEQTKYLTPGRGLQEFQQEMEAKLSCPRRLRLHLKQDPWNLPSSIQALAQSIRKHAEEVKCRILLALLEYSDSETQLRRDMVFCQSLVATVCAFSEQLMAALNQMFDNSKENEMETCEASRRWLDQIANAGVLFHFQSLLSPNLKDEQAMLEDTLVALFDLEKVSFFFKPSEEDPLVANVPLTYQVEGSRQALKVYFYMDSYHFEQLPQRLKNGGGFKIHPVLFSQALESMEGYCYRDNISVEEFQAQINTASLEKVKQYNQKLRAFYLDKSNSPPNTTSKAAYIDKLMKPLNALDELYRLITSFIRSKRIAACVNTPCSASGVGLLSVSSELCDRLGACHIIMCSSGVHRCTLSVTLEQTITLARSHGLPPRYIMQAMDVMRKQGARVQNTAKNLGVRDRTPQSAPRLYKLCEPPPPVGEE
Sequence of phosphatidylinositol 3,4,5-trisphosphate Rac exchange factor 2 (PREX2) (Q70Z35 whole entry): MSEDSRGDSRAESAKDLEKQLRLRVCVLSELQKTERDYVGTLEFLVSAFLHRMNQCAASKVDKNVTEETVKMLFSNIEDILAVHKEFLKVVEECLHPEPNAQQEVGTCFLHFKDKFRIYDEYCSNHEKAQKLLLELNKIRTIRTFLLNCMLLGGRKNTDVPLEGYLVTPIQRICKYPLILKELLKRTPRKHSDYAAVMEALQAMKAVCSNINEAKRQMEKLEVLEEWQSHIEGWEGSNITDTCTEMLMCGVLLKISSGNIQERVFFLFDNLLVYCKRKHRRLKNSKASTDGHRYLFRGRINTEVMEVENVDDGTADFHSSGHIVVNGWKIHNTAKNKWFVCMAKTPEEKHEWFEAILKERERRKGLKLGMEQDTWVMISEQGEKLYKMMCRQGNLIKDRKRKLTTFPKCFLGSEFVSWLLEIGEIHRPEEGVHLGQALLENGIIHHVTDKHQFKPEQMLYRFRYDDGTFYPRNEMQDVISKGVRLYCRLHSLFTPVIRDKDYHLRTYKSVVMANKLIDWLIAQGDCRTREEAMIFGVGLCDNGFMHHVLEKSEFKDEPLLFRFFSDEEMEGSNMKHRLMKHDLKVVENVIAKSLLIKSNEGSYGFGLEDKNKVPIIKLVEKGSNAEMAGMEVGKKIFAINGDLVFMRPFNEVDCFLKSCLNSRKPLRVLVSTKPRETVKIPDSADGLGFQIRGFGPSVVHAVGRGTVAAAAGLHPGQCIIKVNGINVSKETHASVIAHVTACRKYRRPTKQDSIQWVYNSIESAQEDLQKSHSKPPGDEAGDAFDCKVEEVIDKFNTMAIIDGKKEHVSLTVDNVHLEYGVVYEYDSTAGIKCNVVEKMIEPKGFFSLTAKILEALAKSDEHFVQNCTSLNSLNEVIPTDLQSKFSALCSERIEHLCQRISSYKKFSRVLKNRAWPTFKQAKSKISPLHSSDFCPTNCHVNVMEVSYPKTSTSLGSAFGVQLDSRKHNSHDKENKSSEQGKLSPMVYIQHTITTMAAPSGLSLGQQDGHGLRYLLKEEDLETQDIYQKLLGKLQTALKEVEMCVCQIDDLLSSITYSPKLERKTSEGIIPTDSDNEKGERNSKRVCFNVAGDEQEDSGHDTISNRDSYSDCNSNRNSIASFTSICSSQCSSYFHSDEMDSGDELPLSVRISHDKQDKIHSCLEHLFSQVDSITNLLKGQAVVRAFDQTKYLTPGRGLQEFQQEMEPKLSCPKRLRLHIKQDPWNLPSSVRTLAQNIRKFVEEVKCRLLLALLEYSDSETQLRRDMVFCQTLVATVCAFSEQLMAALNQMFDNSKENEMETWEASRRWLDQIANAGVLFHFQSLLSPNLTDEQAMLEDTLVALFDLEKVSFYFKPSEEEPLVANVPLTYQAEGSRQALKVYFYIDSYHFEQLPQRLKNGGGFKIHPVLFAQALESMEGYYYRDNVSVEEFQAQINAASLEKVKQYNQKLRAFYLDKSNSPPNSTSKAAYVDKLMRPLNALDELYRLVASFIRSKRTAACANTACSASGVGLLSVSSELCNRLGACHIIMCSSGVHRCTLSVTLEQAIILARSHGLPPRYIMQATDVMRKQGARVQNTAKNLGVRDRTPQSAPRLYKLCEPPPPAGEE

B1: glycine-N-methyltransferase (GNMT) (enzyme)
chain: VDSVYRTRSLGVAAEGLPDQYADGEAARVWQLYIGDTRSRTAEYKAWLLGLLRQHGCQRVLDVACGTGVDSIMLVEEGFSVTSVDASDKMLKYALKERWNRRHEPAFDKWVIEEANWMTLDKDVPQSAEGGFDAVICLGNSFAHLPDCKGDQSEHRLALKNIASMVRAGGLLVIDHRNYDHILSTGCAPPGKNIYYKSDLTKDVTTSVLIVNNKAHMVTLDYTVQVPGAGQDGSPGLSKFRLSYYPHCLASFTELLQAAFGGKCQHSVLGDFKPYKPGQTYIPCYFIHVLKRTD
For B1, the “PREX2 half-life (pulse-chase, 35S-Methionine/Cysteine, Huh7 cells)” value in assay [1] was 9.4 h.

B2: endogenous GNMT of mouse liver (enzyme, UniProt Q9QXF8 2-293, looked up)
chain: VDSVYRTRSLGVAAEGLPDQYADGEAARVWQLYIGDTRSRTAEYKAWLLGLLRQHGCHRVLDVACGTGVDSIMLVEEGFSVMSVDASDKMLKYALKERWNRRKEPSFDNWVIEEANWLTLDKDVLSGDGFDAVICLGNSFAHLPDCKGDQSEHRLALKNIASMVRPGGLLVIDHRNYDYILSTGCAPPGKNIYYKSDLTKDITTSVLTVNNKAHMVTLDYTVQVPGTGRDGSPGFSKFRLSYYPHCLASFTELVRAAFGGRCQHSVLGDFKPYKPGQAYVPCYFIHVLKKTD
In the case of B2, the binding result in assay [2] is “binds”.

Values taken from US20200040401A1 (KAOHSIUNG MEDICAL UNIVERSITY, published 2020).
